Source: the RNAGym collection of RNA variant scans (doi:10.7554/elife.80360)

B1: HDV Ribozyme (parent)
chain: GGCCGGCAUGGUCCCAGCCUCCUCGCUGGCGCCGGCUGGGCAACAUUCCGAGGGGACCGUCCCCUCGGUAAUGGCGAAUGGGACCCA

Variants of: B1
Assay: self-cleavage, relative activity (ratio to wild type); higher = more cleavage; co-transcriptional

| Variant | self-cleavage |
| --- | --- |
| C14G G35A | 0.199 |
| C14G G35C | 0 |
| C14G G35U | 0 |
| C14G G38C | 0.142 |
| C14G G40U | 0.0594 |
| C14G G52A | 0.739 |
| C14G G52C | 0.519 |
| C14G G53C | 0.727 |
| C14G G59U | 0.745 |
| C14G G67U | 0.594 |
| C14G G68C | 0.383 |
| C14G G68U | 0.277 |
| C14G G73U | 0.0755 |
| C14G G74C | 0.0639 |
| C14G G74U | 0.128 |
| C14G G80C | 0.0723 |
| C14G U46C | 0.511 |
| C14G U60C | 0.443 |
| C14G U65A | 0.65 |
| C14G U65C | 0.8 |
| C14G U69A | 0.767 |
| C14G U79G | 0 |
| C14U A43C | 0.364 |
| C14U A45U | 0.892 |

| Variant | self-cleavage |
| --- | --- |
| C14U A51G | 0.898 |
| C14U A56G | 1.16 |
| C14U A77G | 1.31 |
| C14U A78C | 0.237 |
| C14U A83C | 0.499 |
| C14U C15G | 0.415 |
| C14U C18A | 0 |
| C14U C22U | 0.935 |
| C14U C24A | 0.76 |
| C14U C24G | 0.121 |
| C14U C26U | 1.07 |
| C14U C32A | 0.101 |
| C14U C33U | 0.975 |
| C14U C36G | 0.322 |
| C14U C41A | 1.06 |
| C14U C41G | 1.06 |
| C14U C44A | 1.01 |
| C14U C49G | 0.831 |
| C14U C62A | 1.06 |
| C14U C64G | 1.24 |
| C14U C75G | 0.353 |
| C14U C84U | 0.845 |
| C14U G29U | 0.0739 |
| C14U G31A | 0.475 |

| Variant | self-cleavage |
| --- | --- |
| C14U G34A | 0.17 |
| C14U G39U | 0.895 |
| C14U G40A | 1.17 |
| C14U G40U | 0.724 |
| C14U G52U | 1.04 |
| C14U G55A | 1.21 |
| C14U G67C | 0.929 |
| C14U G73U | 0.309 |
| C14U G76A | 1.49 |
| C14U G80A | 0.486 |
| C14U G81U | 0.729 |
| C14U U23A | 1.04 |
| C14U U37A | 0.151 |
| C14U U46G | 0.875 |
| C14U U47A | 0.906 |
| C14U U69G | 0.755 |
| C14U U72A | 0.745 |
| C14U U72G | 0.598 |
| C14U U79G | 0.89 |
| C15A A16C | 0.415 |
| C15A A43U | 0.212 |
| C15A A45U | 0.475 |
| C15A A56U | 0.743 |
| C15A A70C | 0.554 |

| Variant | self-cleavage |
| --- | --- |
| C15A A83C | 0.196 |
| C15A C18U | 0.295 |
| C15A C21G | 0 |
| C15A C24G | 0.032 |
| C15A C26A | 0.529 |
| C15A C26G | 0.415 |
| C15A C33A | 0.256 |
| C15A C36A | 0.0692 |
| C15A C36U | 0.253 |
| C15A C44G | 0.431 |
| C15A C44U | 0.426 |
| C15A C48A | 0.597 |
| C15A C49A | 0.974 |
| C15A C58A | 0.332 |
| C15A C61U | 0.752 |
| C15A C63G | 0.539 |
| C15A C75A | 0.115 |
| C15A C84U | 0.665 |
| C15A C86G | 0.748 |
| C15A C86U | 0.831 |
| C15A G25A | 0.0504 |
| C15A G28A | 0.136 |
| C15A G29A | 0.117 |
| C15A G31U | 0.0339 |

| Variant | self-cleavage |
| --- | --- |
| C15A G35A | 0.405 |
| C15A G35C | 0.138 |
| C15A G38A | 0.0978 |
| C15A G39A | 0.095 |
| C15A G40C | 0.0875 |
| C15A G40U | 0.352 |
| C15A G52U | 0.844 |
| C15A G54A | 0.504 |
| C15A G54U | 0.585 |
| C15A G67C | 0.782 |
| C15A G68U | 0.309 |
| C15A G73U | 0.095 |
| C15A G76C | 0.767 |
| C15A G80A | 0.831 |
| C15A G82A | 0.369 |
| C15A G82C | 0.415 |
| C15A U23A | 0.604 |
| C15A U23G | 0.185 |
| C15A U27G | 0.653 |
| C15A U37C | 0.665 |
| C15A U46G | 0.383 |
| C15A U60G | 0.731 |
| C15A U69A | 0.506 |
| C15A U69G | 0.492 |

| Variant | self-cleavage |
| --- | --- |
| C15A U79G | 0.831 |
| C15G A16G | 0.665 |
| C15G A43G | 0.237 |
| C15G A56G | 0.712 |
| C15G A70G | 0.554 |
| C15G A78C | 0 |
| C15G A78U | 0.375 |
| C15G A83G | 0.185 |
| C15G A87U | 0.475 |
| C15G C19G | 0 |
| C15G C21A | 0.0707 |
| C15G C21G | 0 |
| C15G C21U | 0.0405 |
| C15G C22A | 0.0504 |
| C15G C22G | 0.119 |
| C15G C24A | 0.482 |
| C15G C32U | 0.437 |
| C15G C41G | 0.289 |
| C15G C57A | 0.703 |
| C15G C58A | 0.437 |
| C15G C62U | 0.665 |
| C15G C63G | 0.475 |
| C15G C63U | 0.394 |
| C15G C84A | 0.519 |

| Variant | self-cleavage |
| --- | --- |
| C15G C85G | 0.196 |
| C15G C85U | 0.453 |
| C15G C86G | 0.317 |
| C15G G28U | 0.0437 |
| C15G G34U | 0.19 |
| C15G G35A | 0.196 |
| C15G G35C | 0.0791 |
| C15G G39U | 0.128 |
| C15G G40A | 0.762 |
| C15G G40U | 0.354 |
| C15G G52A | 0.807 |
| C15G G53A | 0.353 |
| C15G G54U | 0.59 |
| C15G G55U | 0.677 |
| C15G G59A | 0.831 |
| C15G G59C | 0.767 |
| C15G G68C | 0.511 |
| C15G G73C | 0.231 |
| C15G G74U | 0.0875 |
| C15G G76U | 0.831 |
| C15G G81U | 0.297 |
| C15G G82U | 0.229 |
| C15G U20A | 0.128 |
